According to patent publication US20210388087A1:

B1: dBBDu183H V100iK / dBBDu072L (antibody, name in Kabat numbering, V domains shown)
VH: QVQLVESGGGLVQPGRSLRLSCAASGFTFSNAWMHWVRQAPGKGLEWVAQIKDKGNAYAAYYAPSVKGRFTISRDDSKNSIYLQMNSLKTEDTAVYYCHYVHYASASTVLPAFGKDAWGQGTTVTVSS
VL: DIVMTQSPLSLPVTPGEPASISCQASQELVHMNRNTYLHWYQQKPGQAPRLLIYKVSNRFPGVPDRFSGSGSGTDFTLKISRVEAEDVGVYYCAQGTSVPFTFGQGTKLEIK
B2: dBBDu183H D101K / dBBDu072L (antibody, name in Kabat numbering, V domains shown)
VH: QVQLVESGGGLVQPGRSLRLSCAASGFTFSNAWMHWVRQAPGKGLEWVAQIKDKGNAYAAYYAPSVKGRFTISRDDSKNSIYLQMNSLKTEDTAVYYCHYVHYASASTVLPAFGVKAWGQGTTVTVSS
VL: DIVMTQSPLSLPVTPGEPASISCQASQELVHMNRNTYLHWYQQKPGQAPRLLIYKVSNRFPGVPDRFSGSGSGTDFTLKISRVEAEDVGVYYCAQGTSVPFTFGQGTKLEIK
B3: dBBDu183H A102K / dBBDu072L (antibody, name in Kabat numbering, V domains shown)
VH: QVQLVESGGGLVQPGRSLRLSCAASGFTFSNAWMHWVRQAPGKGLEWVAQIKDKGNAYAAYYAPSVKGRFTISRDDSKNSIYLQMNSLKTEDTAVYYCHYVHYASASTVLPAFGVDKWGQGTTVTVSS
VL: DIVMTQSPLSLPVTPGEPASISCQASQELVHMNRNTYLHWYQQKPGQAPRLLIYKVSNRFPGVPDRFSGSGSGTDFTLKISRVEAEDVGVYYCAQGTSVPFTFGQGTKLEIK
B4: dBBDu183H H93R / dBBDu072L (antibody, name in Kabat numbering, V domains shown)
VH: QVQLVESGGGLVQPGRSLRLSCAASGFTFSNAWMHWVRQAPGKGLEWVAQIKDKGNAYAAYYAPSVKGRFTISRDDSKNSIYLQMNSLKTEDTAVYYCRYVHYASASTVLPAFGVDAWGQGTTVTVSS
VL: DIVMTQSPLSLPVTPGEPASISCQASQELVHMNRNTYLHWYQQKPGQAPRLLIYKVSNRFPGVPDRFSGSGSGTDFTLKISRVEAEDVGVYYCAQGTSVPFTFGQGTKLEIK
B5: dBBDu183H Y94R / dBBDu072L (antibody, name in Kabat numbering, V domains shown)
VH: QVQLVESGGGLVQPGRSLRLSCAASGFTFSNAWMHWVRQAPGKGLEWVAQIKDKGNAYAAYYAPSVKGRFTISRDDSKNSIYLQMNSLKTEDTAVYYCHRVHYASASTVLPAFGVDAWGQGTTVTVSS
VL: DIVMTQSPLSLPVTPGEPASISCQASQELVHMNRNTYLHWYQQKPGQAPRLLIYKVSNRFPGVPDRFSGSGSGTDFTLKISRVEAEDVGVYYCAQGTSVPFTFGQGTKLEIK
B6: dBBDu183H V95R / dBBDu072L (antibody, name in Kabat numbering, V domains shown)
VH: QVQLVESGGGLVQPGRSLRLSCAASGFTFSNAWMHWVRQAPGKGLEWVAQIKDKGNAYAAYYAPSVKGRFTISRDDSKNSIYLQMNSLKTEDTAVYYCHYRHYASASTVLPAFGVDAWGQGTTVTVSS
VL: DIVMTQSPLSLPVTPGEPASISCQASQELVHMNRNTYLHWYQQKPGQAPRLLIYKVSNRFPGVPDRFSGSGSGTDFTLKISRVEAEDVGVYYCAQGTSVPFTFGQGTKLEIK
B7: dBBDu183H H96R / dBBDu072L (antibody, name in Kabat numbering, V domains shown)
VH: QVQLVESGGGLVQPGRSLRLSCAASGFTFSNAWMHWVRQAPGKGLEWVAQIKDKGNAYAAYYAPSVKGRFTISRDDSKNSIYLQMNSLKTEDTAVYYCHYVRYASASTVLPAFGVDAWGQGTTVTVSS
VL: DIVMTQSPLSLPVTPGEPASISCQASQELVHMNRNTYLHWYQQKPGQAPRLLIYKVSNRFPGVPDRFSGSGSGTDFTLKISRVEAEDVGVYYCAQGTSVPFTFGQGTKLEIK
B8: dBBDu183H Y97R / dBBDu072L (antibody, name in Kabat numbering, V domains shown)
VH: QVQLVESGGGLVQPGRSLRLSCAASGFTFSNAWMHWVRQAPGKGLEWVAQIKDKGNAYAAYYAPSVKGRFTISRDDSKNSIYLQMNSLKTEDTAVYYCHYVHRASASTVLPAFGVDAWGQGTTVTVSS
VL: DIVMTQSPLSLPVTPGEPASISCQASQELVHMNRNTYLHWYQQKPGQAPRLLIYKVSNRFPGVPDRFSGSGSGTDFTLKISRVEAEDVGVYYCAQGTSVPFTFGQGTKLEIK
B9: dBBDu183H A98R / dBBDu072L (antibody, name in Kabat numbering, V domains shown)
VH: QVQLVESGGGLVQPGRSLRLSCAASGFTFSNAWMHWVRQAPGKGLEWVAQIKDKGNAYAAYYAPSVKGRFTISRDDSKNSIYLQMNSLKTEDTAVYYCHYVHYRSASTVLPAFGVDAWGQGTTVTVSS
VL: DIVMTQSPLSLPVTPGEPASISCQASQELVHMNRNTYLHWYQQKPGQAPRLLIYKVSNRFPGVPDRFSGSGSGTDFTLKISRVEAEDVGVYYCAQGTSVPFTFGQGTKLEIK
B10: dBBDu183H S100aR / dBBDu072L (antibody, name in Kabat numbering, V domains shown)
VH: QVQLVESGGGLVQPGRSLRLSCAASGFTFSNAWMHWVRQAPGKGLEWVAQIKDKGNAYAAYYAPSVKGRFTISRDDSKNSIYLQMNSLKTEDTAVYYCHYVHYASARTVLPAFGVDAWGQGTTVTVSS
VL: DIVMTQSPLSLPVTPGEPASISCQASQELVHMNRNTYLHWYQQKPGQAPRLLIYKVSNRFPGVPDRFSGSGSGTDFTLKISRVEAEDVGVYYCAQGTSVPFTFGQGTKLEIK
B11: dBBDu183H T100bR / dBBDu072L (antibody, name in Kabat numbering, V domains shown)
VH: QVQLVESGGGLVQPGRSLRLSCAASGFTFSNAWMHWVRQAPGKGLEWVAQIKDKGNAYAAYYAPSVKGRFTISRDDSKNSIYLQMNSLKTEDTAVYYCHYVHYASASRVLPAFGVDAWGQGTTVTVSS
VL: DIVMTQSPLSLPVTPGEPASISCQASQELVHMNRNTYLHWYQQKPGQAPRLLIYKVSNRFPGVPDRFSGSGSGTDFTLKISRVEAEDVGVYYCAQGTSVPFTFGQGTKLEIK
B12: dBBDu183H L100dR / dBBDu072L (antibody, name in Kabat numbering, V domains shown)
VH: QVQLVESGGGLVQPGRSLRLSCAASGFTFSNAWMHWVRQAPGKGLEWVAQIKDKGNAYAAYYAPSVKGRFTISRDDSKNSIYLQMNSLKTEDTAVYYCHYVHYASASTVRPAFGVDAWGQGTTVTVSS
VL: DIVMTQSPLSLPVTPGEPASISCQASQELVHMNRNTYLHWYQQKPGQAPRLLIYKVSNRFPGVPDRFSGSGSGTDFTLKISRVEAEDVGVYYCAQGTSVPFTFGQGTKLEIK
B13: dBBDu183H A100fR / dBBDu072L (antibody, name in Kabat numbering, V domains shown)
VH: QVQLVESGGGLVQPGRSLRLSCAASGFTFSNAWMHWVRQAPGKGLEWVAQIKDKGNAYAAYYAPSVKGRFTISRDDSKNSIYLQMNSLKTEDTAVYYCHYVHYASASTVLPRFGVDAWGQGTTVTVSS
VL: DIVMTQSPLSLPVTPGEPASISCQASQELVHMNRNTYLHWYQQKPGQAPRLLIYKVSNRFPGVPDRFSGSGSGTDFTLKISRVEAEDVGVYYCAQGTSVPFTFGQGTKLEIK
B14: dBBDu183H F100gR / dBBDu072L (antibody, name in Kabat numbering, V domains shown)
VH: QVQLVESGGGLVQPGRSLRLSCAASGFTFSNAWMHWVRQAPGKGLEWVAQIKDKGNAYAAYYAPSVKGRFTISRDDSKNSIYLQMNSLKTEDTAVYYCHYVHYASASTVLPARGVDAWGQGTTVTVSS
VL: DIVMTQSPLSLPVTPGEPASISCQASQELVHMNRNTYLHWYQQKPGQAPRLLIYKVSNRFPGVPDRFSGSGSGTDFTLKISRVEAEDVGVYYCAQGTSVPFTFGQGTKLEIK
B15: dBBDu183H G100hR / dBBDu072L (antibody, name in Kabat numbering, V domains shown)
VH: QVQLVESGGGLVQPGRSLRLSCAASGFTFSNAWMHWVRQAPGKGLEWVAQIKDKGNAYAAYYAPSVKGRFTISRDDSKNSIYLQMNSLKTEDTAVYYCHYVHYASASTVLPAFRVDAWGQGTTVTVSS
VL: DIVMTQSPLSLPVTPGEPASISCQASQELVHMNRNTYLHWYQQKPGQAPRLLIYKVSNRFPGVPDRFSGSGSGTDFTLKISRVEAEDVGVYYCAQGTSVPFTFGQGTKLEIK
B16: dBBDu183H V100iR / dBBDu072L (antibody, name in Kabat numbering, V domains shown)
VH: QVQLVESGGGLVQPGRSLRLSCAASGFTFSNAWMHWVRQAPGKGLEWVAQIKDKGNAYAAYYAPSVKGRFTISRDDSKNSIYLQMNSLKTEDTAVYYCHYVHYASASTVLPAFGRDAWGQGTTVTVSS
VL: DIVMTQSPLSLPVTPGEPASISCQASQELVHMNRNTYLHWYQQKPGQAPRLLIYKVSNRFPGVPDRFSGSGSGTDFTLKISRVEAEDVGVYYCAQGTSVPFTFGQGTKLEIK
B17: dBBDu183H D101R / dBBDu072L (antibody, name in Kabat numbering, V domains shown)
VH: QVQLVESGGGLVQPGRSLRLSCAASGFTFSNAWMHWVRQAPGKGLEWVAQIKDKGNAYAAYYAPSVKGRFTISRDDSKNSIYLQMNSLKTEDTAVYYCHYVHYASASTVLPAFGVRAWGQGTTVTVSS
VL: DIVMTQSPLSLPVTPGEPASISCQASQELVHMNRNTYLHWYQQKPGQAPRLLIYKVSNRFPGVPDRFSGSGSGTDFTLKISRVEAEDVGVYYCAQGTSVPFTFGQGTKLEIK
B18: dBBDu183H A102R / dBBDu072L (antibody, name in Kabat numbering, V domains shown)
VH: QVQLVESGGGLVQPGRSLRLSCAASGFTFSNAWMHWVRQAPGKGLEWVAQIKDKGNAYAAYYAPSVKGRFTISRDDSKNSIYLQMNSLKTEDTAVYYCHYVHYASASTVLPAFGVDRWGQGTTVTVSS
VL: DIVMTQSPLSLPVTPGEPASISCQASQELVHMNRNTYLHWYQQKPGQAPRLLIYKVSNRFPGVPDRFSGSGSGTDFTLKISRVEAEDVGVYYCAQGTSVPFTFGQGTKLEIK
B19: dBBDu183H H93F / dBBDu072L (antibody, name in Kabat numbering, V domains shown)
VH: QVQLVESGGGLVQPGRSLRLSCAASGFTFSNAWMHWVRQAPGKGLEWVAQIKDKGNAYAAYYAPSVKGRFTISRDDSKNSIYLQMNSLKTEDTAVYYCFYVHYASASTVLPAFGVDAWGQGTTVTVSS
VL: DIVMTQSPLSLPVTPGEPASISCQASQELVHMNRNTYLHWYQQKPGQAPRLLIYKVSNRFPGVPDRFSGSGSGTDFTLKISRVEAEDVGVYYCAQGTSVPFTFGQGTKLEIK
B20: dBBDu183H V95F / dBBDu072L (antibody, name in Kabat numbering, V domains shown)
VH: QVQLVESGGGLVQPGRSLRLSCAASGFTFSNAWMHWVRQAPGKGLEWVAQIKDKGNAYAAYYAPSVKGRFTISRDDSKNSIYLQMNSLKTEDTAVYYCHYFHYASASTVLPAFGVDAWGQGTTVTVSS
VL: DIVMTQSPLSLPVTPGEPASISCQASQELVHMNRNTYLHWYQQKPGQAPRLLIYKVSNRFPGVPDRFSGSGSGTDFTLKISRVEAEDVGVYYCAQGTSVPFTFGQGTKLEIK
B21: dBBDu183H A98F / dBBDu072L (antibody, name in Kabat numbering, V domains shown)
VH: QVQLVESGGGLVQPGRSLRLSCAASGFTFSNAWMHWVRQAPGKGLEWVAQIKDKGNAYAAYYAPSVKGRFTISRDDSKNSIYLQMNSLKTEDTAVYYCHYVHYFSASTVLPAFGVDAWGQGTTVTVSS
VL: DIVMTQSPLSLPVTPGEPASISCQASQELVHMNRNTYLHWYQQKPGQAPRLLIYKVSNRFPGVPDRFSGSGSGTDFTLKISRVEAEDVGVYYCAQGTSVPFTFGQGTKLEIK

Target: Human CD137 ECD (human)
Sequence (chain, as listed by the source limits assumed): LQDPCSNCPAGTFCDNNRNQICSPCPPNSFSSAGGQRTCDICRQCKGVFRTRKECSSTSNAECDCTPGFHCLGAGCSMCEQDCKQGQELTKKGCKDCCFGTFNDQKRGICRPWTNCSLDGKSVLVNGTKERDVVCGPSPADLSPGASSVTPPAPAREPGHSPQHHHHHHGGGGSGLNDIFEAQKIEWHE
Assay: SPR, vs parent H183/L072

Fold change of affinity, 0 fold:
B1
B2
B3
B4
B5
B6
B7
B8
B9
B10
B11
B12
B13
B14
B15
B16
B17
B18
B19
B20
B21
